B1: KIAA0774 (parent)
chain: FEDEVKRLGWQQQAELQELEERLQ
B2: ZNF649 (parent)
chain: YQAGKPDALTKLEQGEPLWTLEDE

Variants of: B1
Experiment: protein stability index of a GFP-peptide fusion (GPS, HEK-293T) (PSI 1-6); higher = more stable
Settings: c terminus: a fixed tail appended
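Note: lentivirally expressed fusions sorted by FACS into six bins by GFP to DsRed ratio, PSI derived from sequencing read proportions per bin multiplied by bin number.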

| Variant | protein stability index |
| --- | --- |
| L19M | 4.42 |
| L19T | 4.65 |
| L19F | 4.12 |
| L19H | 4.08 |
| V5F | 2.77 |
| V5W | 3.5 |
| V5L | 3.4 |
| V5D | 4.37 |
| V5P | 4.01 |
| V5E | 4.44 |
| V5G | 3.99 |
| V5N | 4.08 |
| V5I | 3.87 |
| V5K | 2.54 |
| Q12Y | 2.31 |
| Q12I | 2.45 |
| Q12R | 3 |
| Q12E | 4.09 |
| Q12K | 4.03 |
| Q12G | 4.14 |
| G9F | 3.96 |
| G9N | 2.62 |
| G9E | 4.63 |
| G9M | 3.13 |
| G9C | 3.36 |

| Variant | protein stability index |
| --- | --- |
| G9H | 4.11 |
| Q13P | 5.11 |
| Q13S | 5.01 |
| Q13N | 5.2 |
| Q13G | 5.35 |
| Q13M | 2.6 |
| Q13H | 4.39 |
| E20A | 4.08 |
| E20F | 2.51 |
| E20T | 3.53 |
| E20D | 4.84 |
| E20W | 3.05 |
| E20L | 3.38 |
| E20R | 3.87 |
| E20P | 4.8 |
| E20K | 4.4 |
| E20S | 4.49 |
| L16N | 4.87 |
| L16R | 4.04 |
| L16E | 5.1 |
| L16W | 3.93 |
| L16S | 4.91 |
| L16F | 4.15 |
| L16V | 4.86 |
| L16M | 4.48 |

| Variant | protein stability index |
| --- | --- |
| R7K | 3.32 |
| R7T | 4.45 |
| R7S | 4.65 |
| R7I | 3.67 |
| R7M | 4.41 |
| R7H | 4.04 |
| R7A | 4.65 |
| R7E | 4.53 |
| E2Y | 3.56 |
| E2I | 3.12 |
| E2K | 2.27 |
| E2M | 2.77 |
| E2R | 4.41 |
| E2D | 3.79 |
| L23Y | 4.51 |
| L23D | 5.21 |
| R22E | 5.78 |
| R22N | 5.69 |
| R22W | 4.31 |
| R22L | 4.13 |
| R22F | 4.62 |
| F1M | 3.68 |
| F1R | 3.41 |
| F1K | 2.96 |
| F1G | 3.56 |

| Variant | protein stability index |
| --- | --- |
| F1T | 2.85 |
| E4N | 3.49 |
| E4T | 3.2 |
| E4M | 3.12 |
| E4D | 4.14 |
| E4R | 3.32 |
| E4G | 3.21 |
| D3I | 1.66 |
| D3L | 2.95 |
| D3Y | 2.85 |
| D3P | 3.42 |
| D3M | 2.59 |
| D3T | 2.69 |
| D3W | 3.19 |
| D3G | 3.23 |
| K6C | 3.87 |
| K6Y | 4.4 |
| K6H | 4.14 |
| K6W | 3.89 |
| K6I | 3.39 |
| K6S | 4.47 |
| K6M | 4.17 |
| K6F | 4.38 |
| K6G | 4.5 |
| Q11H | 5.08 |

| Variant | protein stability index |
| --- | --- |
| Q11F | 3.73 |
| Q11V | 1.72 |
| Q11E | 4.83 |
| Q11C | 3.86 |
| Q11K | 4.41 |
| Q11Y | 4.76 |
| Q11S | 4.4 |
| W10G | 5.07 |
| W10P | 5.11 |
| W10A | 5.49 |
| W10K | 5.13 |
| W10E | 5.57 |
| W10I | 4.66 |
| A14L | 1.85 |
| A14E | 5.64 |
| A14C | 3 |
| A14I | 1.73 |
| Q24W | 3.49 |
| Q24K | 4.73 |
| Q24P | 4.96 |
| E18G | 4.68 |
| E18W | 2.4 |
| E18D | 4.61 |
| E18R | 2.74 |
| E18N | 3.94 |

| Variant | protein stability index |
| --- | --- |
| E18K | 4.41 |
| Q17V | 4.51 |
| Q17E | 3.12 |
| Q17P | 4.91 |
| Q17T | 4.78 |
| Q17G | 5.2 |
| E15R | 2.92 |
| E15T | 3.87 |
| E15D | 4.46 |
| E15N | 4.51 |
| E21G | 4.76 |
| E21H | 4.41 |
| E21V | 4.14 |
| E21R | 4.46 |
| E21F | 4.07 |
| E21Q | 4.67 |
| E21M | 4.32 |
| E21W | 2.91 |
| E21Y | 3.88 |
| L8S | 3.88 |
| L8A | 3.66 |
| L8P | 4.45 |
| L8N | 3.48 |
| L8M | 2.83 |
| L8F | 3.98 |

Variants of: B2
Experiment: as above
Settings: c terminus: a fixed tail appended

| Variant | protein stability index |
| --- | --- |
| E24T | 4.42 |
| E24H | 4.04 |
| E24L | 3.53 |
| E24D | 4.71 |
| E24S | 4.27 |
| E24M | 3.88 |
| E24Y | 3.29 |
| E24V | 3.42 |
| E24W | 2.38 |
| E24P | 4.32 |
| E24K | 4.41 |
| E24I | 3.42 |
| E24Q | 4.02 |
| E24N | 4.27 |
| E24F | 3.05 |
| E24G | 3.87 |
| E24R | 4.48 |
